This is an account of results in patent US20070015231A1, “Assay for protein tyrosine phosphatases” (CEPTYR, Inc., priority 2000, published 2007).

Square brackets hold non-standard residues; d marks the D form. Ends that are not written are not given here. pY = N[C@@H](Cc1ccc(OP(=O)(O)O)cc1)C(=O)O

One data set addresses T1, CD45 (Homo sapiens, UniProt P08575).
T1 sequence (P08575 26-1306): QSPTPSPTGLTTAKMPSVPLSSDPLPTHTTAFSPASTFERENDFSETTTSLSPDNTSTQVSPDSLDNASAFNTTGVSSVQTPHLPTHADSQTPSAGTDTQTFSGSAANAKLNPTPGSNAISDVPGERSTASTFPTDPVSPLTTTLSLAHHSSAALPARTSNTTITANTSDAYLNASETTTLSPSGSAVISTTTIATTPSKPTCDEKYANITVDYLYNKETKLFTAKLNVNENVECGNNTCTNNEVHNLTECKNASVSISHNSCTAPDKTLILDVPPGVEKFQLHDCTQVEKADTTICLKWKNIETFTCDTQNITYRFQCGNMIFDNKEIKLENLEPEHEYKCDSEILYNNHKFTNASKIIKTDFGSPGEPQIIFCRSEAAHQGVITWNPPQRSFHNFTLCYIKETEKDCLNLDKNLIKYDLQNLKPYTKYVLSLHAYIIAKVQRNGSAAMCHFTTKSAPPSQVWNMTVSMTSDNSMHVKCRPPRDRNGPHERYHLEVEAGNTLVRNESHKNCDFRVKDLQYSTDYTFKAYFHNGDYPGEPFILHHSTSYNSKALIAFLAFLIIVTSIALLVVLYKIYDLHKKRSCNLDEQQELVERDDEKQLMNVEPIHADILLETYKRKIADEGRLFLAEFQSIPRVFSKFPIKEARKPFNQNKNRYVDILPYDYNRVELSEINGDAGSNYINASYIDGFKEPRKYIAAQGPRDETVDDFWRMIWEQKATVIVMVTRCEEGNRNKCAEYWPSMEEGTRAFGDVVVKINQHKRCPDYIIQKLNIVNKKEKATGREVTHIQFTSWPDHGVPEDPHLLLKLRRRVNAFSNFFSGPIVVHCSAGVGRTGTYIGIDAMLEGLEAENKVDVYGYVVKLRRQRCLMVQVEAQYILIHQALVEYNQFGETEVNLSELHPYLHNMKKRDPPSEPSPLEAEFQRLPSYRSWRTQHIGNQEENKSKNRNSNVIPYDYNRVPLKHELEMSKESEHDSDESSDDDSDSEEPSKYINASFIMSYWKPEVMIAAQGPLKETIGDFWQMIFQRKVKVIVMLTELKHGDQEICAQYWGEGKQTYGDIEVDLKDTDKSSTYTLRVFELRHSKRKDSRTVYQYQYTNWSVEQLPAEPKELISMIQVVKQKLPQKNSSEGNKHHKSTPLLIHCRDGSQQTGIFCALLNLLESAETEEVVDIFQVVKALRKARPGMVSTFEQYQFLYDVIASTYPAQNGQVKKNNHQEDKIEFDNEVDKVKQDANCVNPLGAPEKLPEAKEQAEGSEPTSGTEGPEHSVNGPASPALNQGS
Particulars: p56lck residues 500-509 peptide; read-out: Km toward CD45; cited from earlier work.

The target in data set [1] is fluorescein-labeled insulin receptor derived phosphopeptide T-R-D-I-pY-E-T-D-Y-Y-R (human). In words: fluorescence polarization, mutant PTP titrated against fluorescein-labeled peptide in solution (midpoint = apparent Kd).
Data set [2] addresses fluorescein-labeled EGF receptor derived phosphopeptide D-A-D-E-pY-L-NH2 (human). The data set is described as above.
For data set [3], the target named is fluorescein-labeled insulin receptor derived phosphopeptide T-R-D-I-pY-E-T-D-Y-Y-R (human). The experiment in a line: fluorescence polarization, mutant PTP titrated against fluorescein-labeled peptide in solution. On the technique in general: Polarisation of emitted light reports the rotation of a fluorescent probe.
For data set [4], the target named is fluorescein-labeled EGF receptor derived phosphopeptide D-A-D-E-pY-L-NH2 (human). The data set is described as above.
The target of data set [5] is T2, fluorescein-labeled EGF receptor derived phosphopeptide D-A-D-E-pY-L-NH2 (not fully specified).
T2 chain: DADEYL

A further data set concerns the target T3, PTP1B (Homo sapiens, UniProt P18031).
T3 construct: PTP1B proteins (wild type and mutant forms) comprising amino acids 1-321 were expressed in E. coli; made in house; host or cells: E. coli
T3 sequence (P18031 1-321): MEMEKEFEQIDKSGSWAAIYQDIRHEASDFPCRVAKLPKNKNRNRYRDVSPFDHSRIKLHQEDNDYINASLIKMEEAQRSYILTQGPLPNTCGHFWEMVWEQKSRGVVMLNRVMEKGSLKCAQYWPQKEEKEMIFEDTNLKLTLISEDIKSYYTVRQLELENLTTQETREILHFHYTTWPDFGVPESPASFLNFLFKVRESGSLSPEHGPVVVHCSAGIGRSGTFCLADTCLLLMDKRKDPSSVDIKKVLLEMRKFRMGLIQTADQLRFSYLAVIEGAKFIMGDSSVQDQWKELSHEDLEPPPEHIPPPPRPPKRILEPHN
In words: PTP catalytic assay of F-ERP-P dephosphorylation with alternate reaction terminator molecules (FP). Format: biochemical. The following applies: reactions stopped after 11 min, polarization stable for 14 hours. The protocol:
The ability of each reaction terminator molecule also was assessed in the presence and absence of vanadate (a well known, nonspecific PTP inhibitor).
Assays were set up in black polypropylene plates with 20 μl of 25 mM Tris HCl pH 7.5 and 20 μl of 300 nM F-ERP-P in 25 mM Tris HCl pH 7.5, 1 mM EDTA, 1 mM DTT, 0.25 mg/ml ovalbumin (TEOD buffer). […] Plates were read using the Polarstar instrument from BMG Lab Technologies using the following settings:
As in Example 3, wells were set up to measure background fluorescence to allow proper calculation of mP values and other wells were set up without addition of terminator reagent to assess the minimum polarization value of the unbound fluorescent phosphotyrosyl peptide (F-ERP-P).

Data set [6] addresses fluorescein-labeled EGF receptor derived phosphopeptide D-A-D-E-pY-L-NH2 (human). The experiment in a line: fluorescence polarization, C215S PTP1B as reaction terminator (Polarstar reader).

As usually defined, the Km is the concentration of substrate that gives half-maximal velocity. On to “A-T-E-G-Q-pY-Q-P-Q-P (ATEGQ[pY]QPQP; also: fluorescein label) [F-lck-P]”, for which the Km with CD45 was 130 µM.
The EC50 is the concentration giving half of the maximal effect. For “PTP1B(D181A), amino acids 1-321 (from UniProt P18031 1-321) (enzyme)”, the EC50 in data set [1] amounted to 0.508 nM; in data set [2], 1.07 nM. Further, the Peak Mp in data set [3] stood at 132 mP; in data set [4] it was 269 mP.

B1: PTP1B (wild type), amino acids 1-321 (protein)
chain: MEMEKEFEQIDKSGSWAAIYQDIRHEASDFPCRVAKLPKNKNRNRYRDVSPFDHSRIKLHQEDNDYINASLIKMEEAQRSYILTQGPLPNTCGHFWEMVWEQKSRGVVMLNRVMEKGSLKCAQYWPQKEEKEMIFEDTNLKLTLISEDIKSYYTVRQLELENLTTQETREILHFHYTTWPDFGVPESPASFLNFLFKVRESGSLSPEHGPVVVHCSAGIGRSGTFCLADTCLLLMDKRKDPSSVDIKKVLLEMRKFRMGLIQTADQLRFSYLAVIEGAKFIMGDSSVQDQWKELSHEDLEPPPEHIPPPPRPPKRILEPHN
Consider B1, for which the “time to complete dephosphorylation of F-ERP-P (fluorescence polarization catalytic assay)” value in data set [5] is “under these conditions the dephosphorylation of F-ERP-P was complete by 20 minutes”.

B2: PTP1B(C215S), amino acids 1-321 (protein)
chain: MEMEKEFEQIDKSGSWAAIYQDIRHEASDFPCRVAKLPKNKNRNRYRDVSPFDHSRIKLHQEDNDYINASLIKMEEAQRSYILTQGPLPNTCGHFWEMVWEQKSRGVVMLNRVMEKGSLKCAQYWPQKEEKEMIFEDTNLKLTLISEDIKSYYTVRQLELENLTTQETREILHFHYTTWPDFGVPESPASFLNFLFKVRESGSLSPEHGPVVVHSSAGIGRSGTFCLADTCLLLMDKRKDPSSVDIKKVLLEMRKFRMGLIQTADQLRFSYLAVIEGAKFIMGDSSVQDQWKELSHEDLEPPPEHIPPPPRPPKRILEPHN
For B2, the EC50 in data set [1] came out at 1.16 nM; in data set [2] it was 0.965 nM. Besides, the “termination of PTP1B-mediated dephosphorylation of F-ERP-P” value in data set [5] is “monoclonal antiphosphotyrosine antibody G104 and the C215S-PTP1B binding mutant were equally effective at stopping the dephosphorylation reaction”. Further, the results for the Peak mP in data set [3] and in data set [4] were 151 mP and 316 mP, respectively. In addition, the “stopping of the dephosphorylation reaction (reaction terminator)” value in the data set with PTP1B is “equally effective at stopping the dephosphorylation reaction”. For the same molecule, the maximum polarization value for bound peptide in data set [6] was determined as 300 mP.
